# Experimental data from US10925971B2, “Methods of treating PRLR positive breast cancer” (Regeneron Pharmaceuticals, Inc., priority 2016, dated 2021).
# T1: monkey PRLR on HEK293/mfPRLR cells (Macaca fascicularis, UniProt A0A2K5WXK1)
# T1 construct: HA; expressed in transfected cells; host or cells: HEK293
# T1 sequence (A0A2K5WXK1 25-619): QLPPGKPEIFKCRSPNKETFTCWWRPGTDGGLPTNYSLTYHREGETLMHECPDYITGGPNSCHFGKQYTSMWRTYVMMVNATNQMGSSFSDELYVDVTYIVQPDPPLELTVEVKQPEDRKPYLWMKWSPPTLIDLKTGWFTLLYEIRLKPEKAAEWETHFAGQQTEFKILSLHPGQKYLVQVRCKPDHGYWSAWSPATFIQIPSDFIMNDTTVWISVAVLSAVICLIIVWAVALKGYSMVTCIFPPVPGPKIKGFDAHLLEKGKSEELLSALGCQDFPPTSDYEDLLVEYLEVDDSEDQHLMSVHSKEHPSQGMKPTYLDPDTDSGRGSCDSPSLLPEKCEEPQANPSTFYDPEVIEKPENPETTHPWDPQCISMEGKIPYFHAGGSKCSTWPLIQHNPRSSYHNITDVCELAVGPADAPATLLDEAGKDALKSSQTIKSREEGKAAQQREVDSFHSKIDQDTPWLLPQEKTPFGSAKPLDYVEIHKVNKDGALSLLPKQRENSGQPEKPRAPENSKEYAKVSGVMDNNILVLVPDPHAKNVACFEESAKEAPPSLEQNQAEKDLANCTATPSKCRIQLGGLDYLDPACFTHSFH
# Key:
# PC3/PRLR tumors = experiment: PC3/PRLR xenograft, tumor size and tumor growth inhibition; type: in vivo, SCID mice; conditions: SCID mice, multi-dose 15 mg/kg
# How it was run: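 MCF7/PRLR cells in mammary fat pad of female NCr nude mice, PC3/PRLR in flank of male SCID, T47D #11 in flank of female CB17 SCID, all with estrogen pellets.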
# [1] = target: T1, monkey PRLR on HEK293/mfPRLR cells; experiment: FACS cell surface binding
# How it was run: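 Flow cytometry: 1×10^5 cells/sample; primary Ab 10 μg/ml, 30 min on ice; 2 washes; PE anti-human 2° 10 μg/ml, 30 min on ice. Cells were HEK293 stably expressing HA-tagged PRLR of the given species, or untransfected HEK293. Readout was MFI fold over isotype.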
# HEK293 parental cells = experiment: FACS cell surface binding; parameters: species or system human
# How it was run: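 HEK293 cells stably transfected with HA-tagged human, cynomolgus or mouse PRLR (G418-selected), or parental HEK293, were stained with 10 μg/ml antibody for 30 min on ice. Binding was then detected with 10 μg/ml PE anti-human secondary for 30 min on ice, and MFI was expressed as fold over isotype control.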
# [2] = target: T2, dimeric human PRLR (hPRLR.mFc; SEQ ID NO:402) (Homo sapiens, UniProt P16471); experiment: Surface plasmon resonance (Biacore T200), antibody-capture format; type: binding; conditions: analyte hPRLR.mFc
# T2 construct: dimeric (hPRLR.mFc)
# How it was run: (§1)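 Antibodies (human IgG1 Fc) captured on an anti-human Fc sensor surface; soluble monomeric (.mmh) or dimeric (.mFc) PRLR injected as analyte. ka and kd obtained by fitting to a 1:1 binding model.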
# [3] = target: T3, monomeric human PRLR (hPRLR.mmh; SEQ ID NO:401) (Homo sapiens, UniProt P16471); experiment: as above; type: binding; conditions: analyte hPRLR.mmh
# T3 construct: soluble monomeric (hPRLR.mmh); mmh (myc-myc-hexahistidine) (C)
# How it was run: as §1
# [4] = tested on: Macaca fascicularis PRLR (mfPRLR.mmh; SEQ ID NO:403); experiment: as above; type: binding; conditions: analyte mfPRLR.mmh
# How it was run: as §1
# [5] = PC3/PRLR tumors TRIAL #1, Day 63
# [6] = PC3/PRLR tumors TRIAL #2, Day 55
# Macaca fascicularis PRLR (mfPRLR.mmh; SEQ ID NO:403), sequence (as listed by the source): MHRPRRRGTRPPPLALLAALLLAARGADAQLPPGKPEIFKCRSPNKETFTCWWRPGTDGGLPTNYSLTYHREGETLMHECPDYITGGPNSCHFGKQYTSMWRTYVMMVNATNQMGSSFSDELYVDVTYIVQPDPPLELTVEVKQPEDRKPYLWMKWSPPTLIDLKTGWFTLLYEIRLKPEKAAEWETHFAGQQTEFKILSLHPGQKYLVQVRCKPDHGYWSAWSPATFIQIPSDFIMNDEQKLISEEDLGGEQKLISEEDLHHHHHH
# T2 sequence (P16471 with tags, fused parts or gaps): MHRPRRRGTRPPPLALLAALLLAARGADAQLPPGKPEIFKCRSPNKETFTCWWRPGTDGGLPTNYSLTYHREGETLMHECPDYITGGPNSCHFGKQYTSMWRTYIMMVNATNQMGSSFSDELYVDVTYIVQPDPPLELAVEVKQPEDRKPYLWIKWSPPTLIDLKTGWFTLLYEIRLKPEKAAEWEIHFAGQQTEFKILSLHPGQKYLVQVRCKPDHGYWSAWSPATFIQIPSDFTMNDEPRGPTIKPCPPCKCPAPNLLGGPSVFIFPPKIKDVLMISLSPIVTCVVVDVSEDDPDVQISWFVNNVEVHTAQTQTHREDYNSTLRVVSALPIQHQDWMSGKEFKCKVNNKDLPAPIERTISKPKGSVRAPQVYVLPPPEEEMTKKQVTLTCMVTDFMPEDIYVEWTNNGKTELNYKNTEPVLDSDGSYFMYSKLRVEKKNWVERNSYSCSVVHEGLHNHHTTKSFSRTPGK
# T3 sequence (P16471 with tags, fused parts or gaps): as the sequence (as listed by the source) above, with V105I, T139A, M154I, T187I, I236T counted along it
Molecule,Average Tumor Growth Inhibition (%) (PC3/PRLR tumors; [5]),Final Tumor size mm^3 (mean ± SEM) (PC3/PRLR tumors; [5]),FACS Cell Binding [1],FACS Cell Binding (HEK293 parental cells),ka ([2]; 25° C.),kd ([2]; 25° C.),ka ([2]; 37° C.),kd ([2]; 37° C.),ka ([3]; 25° C.),kd ([3]; 25° C.),ka ([3]; 37° C.),kd ([3]; 37° C.),ka ([4]; 25° C.),kd ([4]; 25° C.),ka ([4]; 37° C.),kd ([4]; 37° C.),Final Tumor size mm^3 (mean ± SEM) (PC3/PRLR tumors; [6]),Average Tumor Growth Inhibition (%) (PC3/PRLR tumors; [6])
"H1H6975N: anti-PRLR antibody, human IgG1 Fc form of H2M6975N of Table 1; HCVR/LCVR SEQ ID NOs 370/378 (antibody, V domains shown, human IgG1 Fc) VH: EVHLVESGGGLVQPGGSLRLSCAASGFTFSSYEMNWVRQTPGKGLEWISHISSRSVIIYYADSVKGRFTISRDNAKNSLFLQMNSLRAEDTAVYFCAGITIFGIPEYWGQGTLVTVSS VL: EIVLTQSPATLSLSPGERATLSCRASQSVSSYFAWYQQKPGQAPRLLIYDASSRATGIPTRFSGSGSGTDFTLTISSLEPEDFAVYYCQQRSSWPITFGQGTRLEIK",12%,1185 ± 97 mm^3,29 Fold Above Background,1 Fold Above Background,287000 M/s,1.97e-05 s⁻¹,386000 M/s,7.09e-05 s⁻¹,150000 M/s,7.35e-05 s⁻¹,211000 M/s,0.000273 s⁻¹,115000 M/s,0.000131 s⁻¹,140000 M/s,0.000317 s⁻¹,–,–
"H1H6953N: anti-PRLR antibody, human IgG1 Fc form of H1M6953N of Table 1; HCVR/LCVR SEQ ID NOs 274/282 (antibody, V domains shown) VH: EVQLLESGGGLVQPGGTLRLSCAASGFTFSAYAMSWVRQAPGKGLEWVSSINVRAGDTYYADSVKGRFTISRDNSKNTLFLLMNSLRAEDTAAYYCAKARYSSNWGFDFWGQGTLVTVSS VL: DIVMTQSPDSLTVSLGARTTINCQSSQTILHSSNNHNYLAWYQQKPGLPPKLLIYWSSTRESGVPDRFSGSGSGTDFTLTISSLQAEDVAIYYCQQYSNTPYTFGQGTKLEIN",0%,1306 ± 127 mm^3,29 Fold Above Background,2 Fold Above Background,711000 M/s,4.77e-05 s⁻¹,1.47e+06 M/s,0.00017 s⁻¹,792000 M/s,0.000212 s⁻¹,1.1e+06 M/s,0.00122 s⁻¹,727000 M/s,0.000319 s⁻¹,947000 M/s,0.00256 s⁻¹,–,–
"H1H6797P: fully human anti-PRLR antibody, human IgG1 Fc; HCVR/LCVR SEQ ID NOs 178/186 (antibody, V domains shown) VH: EVQLVESGGGLVQPGGSLRLSCIVSGFTFSGSWMSWVRQLPGKGLEWVANIKEDGSDSYYVDSVEGRFTISRDNAKSSLYLQMNSLRVDDTAVYFCARARTVPLHYWGQGTLVTVSS VL: DIQMTQSPSTLSASVGDRVTITCRASQSINIWLAWYQQKPGKAPKLLIYRASYLESGVPSSFAGGGSGTEFTLTISSLQPDDFGTYYCQHYNSYPFTFGQGTKLEIK",–,–,25 Fold Above Background,1 Fold Above Background,982000 M/s,0.000119 s⁻¹,1.8e+06 M/s,0.000125 s⁻¹,1.13e+06 M/s,0.00196 s⁻¹,1.29e+06 M/s,0.00822 s⁻¹,670000 M/s,0.00209 s⁻¹,914000 M/s,0.00906 s⁻¹,–,–
"H1H6765P: fully human anti-PRLR antibody, human IgG1 Fc; HCVR/LCVR SEQ ID NOs 18/26 (antibody, V domains shown) VH: EVQLVESGGGVVRPGGSLRLSCVGSGFSFDDHGMNWVRQGPGKGLEWVSGFNWNGGSTNYAESVKGRFTISRDNARNSLFLQMNSLRAEDTALYYCVRGRSGWFNDAFDVWGPGTMVTVSS VL: EIVLTQSPGTLSLSPGERATLSCRASQTINSNYLAWYRQKPGQTPRLLIYGTSSRATGIPDRFSGSGSGTDFSLTISRLEPEDFAVFYCQQYAGLPTFGPGTKVDIK",–,–,27 Fold Above Background,2 Fold Above Background,869000 M/s,3.41e-05 s⁻¹,801000 M/s,0.000103 s⁻¹,907000 M/s,0.000113 s⁻¹,1.25e+06 M/s,0.000366 s⁻¹,527000 M/s,0.000134 s⁻¹,1.06e+06 M/s,5.37e-05 s⁻¹,1208 ± 72 mm^3,–
"H1H6958N2: anti-PRLR antibody, receptor blocking, human IgG1 Fc form of H2M6958N2 of Table 1; HCVR/LCVR SEQ ID NOs 290/298 (antibody, V domains shown) VH: QVQLVESGGGVVQPGRSLRLSCGASGFTFRNYGMQWVRQGPGKGLEWVTLISFDGNDKYYADSVKGRFTISRDNSKNTLFLQMNSLRTEDTAVYYCARGGDFDYWGQGTLVTVSS VL: DIQMTQSPSSLSASVGDRVTITCRASQDIRKDLGWYQQKPGKAPKRLIYAASSLHSGVPSRFSGSGSGTEFTLTISSLQPEDFATYYCLQHNSYPMYTFGQGTKLEIK",−19%,1507 ± 106 mm^3,30 Fold Above Background,1 Fold Above Background,422000 M/s,3.66e-05 s⁻¹,829000 M/s,0.000139 s⁻¹,233000 M/s,0.000272 s⁻¹,413000 M/s,0.00131 s⁻¹,195000 M/s,0.00028 s⁻¹,328000 M/s,0.00134 s⁻¹,917 ± 253 mm^3,28%
"H1H6782P: fully human anti-PRLR antibody, non-blocking; HCVR/LCVR SEQ ID NOs 66/74 (antibody, V domains shown) VH: EVQLVESGGGLVQPGRSLRLSCAASGFTFDDYAMHWVRQAPGKGLEWVSGIIWNSGHIGYGDSVKGRFTISRDNAKKSLYLQMNSLRAEDTALYYCARDSGRYQSYFDYWGQGTLVTVSS VL: DIQMTQSPSTLSASVGDRVTITCRASHIISSWLAWYQQKPGKAPKVLIFKASSLESGVPSRFSGSGSGTEFTLTISSLQPDDFATYYCQQYNTYSRTFGQGTKVEIK",–,–,32 Fold Above Background,3 Fold Above Background,317000 M/s,7.13e-05 s⁻¹,598000 M/s,0.00013 s⁻¹,360000 M/s,0.000247 s⁻¹,557000 M/s,0.000716 s⁻¹,266000 M/s,0.000279 s⁻¹,385000 M/s,0.000767 s⁻¹,1154 ± 212 mm^3,6%
